{"source": "patent US20250026842A1", "about": "(JIANGSU HENGRUI PHARMACEUTICALS, published 2025)", "binders": {"B1": {"name": "Urelumab (antibody, V domains shown)", "VH": "QVQLQQWGAGLLKPSETLSLTCAVYGGSFSGYYWSWIRQSPEKGLEWIGEINHGGYVTYNPSLESRVTISVDTSKNQFSLKLSSVTAADTAVYYCARDYGPGNYDWYFDLWGRGTLVTVSS", "VL": "EIVLTQSPATLSLSPGERATLSCRASQSVSSYLAWYQQKPGQAPRLLIYDASNRATGIPARFSGSGSGTDFTLTISSLEPEDFAVYYCQQRSNWPPALTFGGGTKVEIK"}}, "key": {"[1]": {"target": "T1, human 4-1BB on the surface of HEK293-Hu4-1BB cells (human, UniProt Q07011 24-255)", "T1 sequence (Q07011 24-255)": "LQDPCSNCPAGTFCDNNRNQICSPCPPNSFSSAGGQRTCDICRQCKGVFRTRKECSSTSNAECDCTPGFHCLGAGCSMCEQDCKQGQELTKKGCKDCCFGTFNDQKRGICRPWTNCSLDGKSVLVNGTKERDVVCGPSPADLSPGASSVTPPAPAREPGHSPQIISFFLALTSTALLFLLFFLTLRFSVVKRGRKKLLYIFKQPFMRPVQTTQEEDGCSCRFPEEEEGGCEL", "experiment": "cell-based or functional assay"}, "[2]": {"target": "T1, human 4-1BB on the surface of …", "experiment": "cell-based or functional assay", "remark": "listed apart in the source"}, "[3]": {"target": "T1, human 4-1BB on the surface of …", "experiment": "FACS on HEK293 cells highly expressing human 4-1BB", "from_the_text": "(§1) HEK293-Hu4-1BB cells were obtained by transient transfection of HEK293 cells (ATCC CRL-1573) with a gene expressing human 4-1BB protein or polypeptide (CD137 cDNA ORF Clone, Human, C-OFPSpark tag; purchased from Sino Biological, Cat #HG10041-ACR). The cell culture medium was DMEM (Gibco, Cat #11995065) containing 10% fetal bovine serum. The experimental medium was sterile PBS (phosphate-buffered saline, pH 7.40) containing 2% fetal bovine serum. HEK293-Hu4-1BB cells were washed with the experimental medium twice and seeded into a 96-well U-bottom plate at 1×10⁵ HEK293-Hu4-1BB cells per well. Different concentrations of the anti-4-1BB single-domain antibody VHH-Fc samples to be tested were added. The cells were incubated at 4° C. for 1 h and then washed with the experimental medium twice. Then the goat anti-human IgG (H+L) Alexa Fluor 488 antibody (Thermo, Cat #A11013) was added. After two washes, fluorescence signal values were measured using a flow cytometer. Urelumab was used as a positive control.\nThe antigen-binding activity of the humanized antibodies was measured using a FACS assay as described in Example 2."}, "[4]": {"target": "T1, human 4-1BB on the surface of …", "experiment": "FACS on HEK293 cells highly expressing human 4-1BB", "from_the_text": "as §1\nA comparison of the antigen-binding activity of C5_V2 and C5_V2-YTI was made using a FACS assay as described in Example 5.", "remark": "listed apart in the source"}}, "note": "Like-named read-outs stand apart in the source and are kept apart here.", "data": [{"binder": "B1", "values": [{"measurement": "EC50, 4-1BB/NF-κB luciferase reporter, FcγRIIb cross-linking", "setting": "[1]", "value": 0.027, "unit": "nM"}, {"measurement": "EC50, 4-1BB/NF-κB luciferase reporter, no FcγRIIb cross-linking", "setting": "[1]", "value": 2.19, "unit": "nM"}, {"measurement": "Emax, 4-1BB/NF-κB luciferase reporter, FcγRIIb cross-linking", "setting": "[1]", "value": "9.39 relative to antibody-free group"}, {"measurement": "Emax, 4-1BB/NF-κB luciferase reporter, no FcγRIIb cross-linking", "setting": "[1]", "value": "4.3 relative to antibody-free group"}, {"measurement": "Factor of variation in Emax, FcγRIIb-mediated activation of HEK293-4-1BB cells", "setting": "[2]", "value": 2.61, "unit": "fold"}, {"measurement": "Factor of variation in Emax, activation of HEK293-4-1BB cells", "setting": "[2]", "value": 1.7, "unit": "fold"}, {"measurement": "EC50", "setting": "[3]", "value": 1.18, "unit": "nM"}, {"measurement": "Maximal fluorescence value", "setting": "[3]", "value": 1000}, {"measurement": "EC50", "setting": "[4]", "value": 1.64, "unit": "nM"}, {"measurement": "Maximal fluorescence value", "setting": "[4]", "value": 39700}]}]}
